# Laboratory results taken from US20230374140A1 (Memorial Sloan Kettering, published 2023).
# What was measured:
# [1] = target: T1, NDC80 derived peptide … / HLA-A*02:01 complex (human); assay: flow cytometry, antibody on pulsed T2 cells
# T1 construct: whole, on cells; On pulsed T2 cells
# [2] = target: T2, NDC80 derived peptide … / HLA-A*02:01 complex (human); assay: flow cytometry, antibody on pulsed T2 cells; remark: listed apart in the source
# T2 construct: whole, on cells; On pulsed T2 cells
# [3] = target: T3, NC1 peptide … / HLA-A*02:01 complex (human); assay: immunopurification from BV173 cell lysate and LC-MS/MS, relative quantitation
# T3 construct: whole, on cells; On pulsed T2 cells; also pulled down from BV173 lysate (HLA-A*02) and presented on JMN cells
# Method: (§1) 200M BV173 cells were lysed with 1% CHAPS, incubated for 1h in the cold room and spun down at 20,000 g for 50 min.
# [4] = target: T4, NC3 peptide … / HLA-A*02:01 complex (human); assay: as above
# T4 construct: whole, on cells; On pulsed T2 cells; also pulled down from BV173 lysate (HLA-A*02)
# Method: as §1
# … / HLA-A*02:01 complex [5] = target: T5, … / HLA-A*02:01 complex (human); assay: as above
# T5 construct: whole, on cells; On pulsed T2 cells; also pulled down from BV173 lysate (HLA-A*02)
# Method: as §1
# … / HLA-A*02:01 complex [6] = target: T6, … / HLA-A*02:01 complex (human); assay: as above; remark: listed apart in the source
# T6 construct: whole, on cells; On pulsed T2 cells; also pulled down from BV173 lysate (HLA-A*02)
# Method: as §1
binder,measurement,setting,value
"TCR mimic antibody clone 1 (mIgG1 clone 1 antibody) (antibody, V domains shown, also called NDC80 clone 1 mAb; mouse version of NDC80 clone 1 mAb) VH: EVQLVQSGAEVKKPGESLKISCEASGYSFSSNWIAWVRQRPGKGLEWMGIIYPGDSDTRYSPSFQGQVTMSADMSISTAYLQWSSLKASDTAMYYCARFAGPGMWSYGFDYWGQGTLVTVSS VL: DIQLTQSPSSLSASVGDRVTITCRASQGIRNDLGWYQQKPGKAPKLMIYAASSLQSGVPSRFSGSGSGTDFTLTISSLQPEDFATYYCLQDYDYPLTFGGGTKLEIKR",binding result,[1],no binding
same,binding result,[2],no binding
same,fold lower MS signal intensity than …,[3],3 fold
same,fold lower MS signal intensity than …,[4],≥ 3 fold
same,fold lower MS signal intensity than …,… / HLA-A*02:01 complex [5],≥ 3 fold
same,fold lower MS signal intensity than …,… / HLA-A*02:01 complex [6],≥ 3 fold
